# Reference: publication PMC2583301
# Biological target: yNap1 C200A/C249A/C272A labelled with Alexa dye at Cys-414 (yNap1m*) (yeast) (UniProt P25293)
# Assay: other fluorescence titration
substance,measurement,value
linker histone H1 (natural protein),Kd,3 nM
same,stoichiometry N (H1 per yNap1 dimer),2
